According to publication PMC6804253, “Predicting and Experimentally Validating Hot-Spot Residues at Protein–Protein Interfaces” (ACS Chemical Biology, 2019):
Substitutions are numbered along the chain they refer to.

B1: 1IAR IA5A (protein, UniProt P05112 25-153, looked up, variant I5A)
Interleukin-4: HKCDATLQEIIKTLNSLTEQKTLCTELTVTDIFAASKNTTEKETFCRAATVLRQFYSHHEKDTRCLGATAQQFHRHKQLIRFLKRLDRNLWGLAGLNSCPVKEANQSTLENFLERLKTIMREKYSKCSS
B2: 1IAR WA91A (protein, UniProt P05112 25-153, looked up, variant W91A)
Interleukin-4: B1 Interleukin-4 with A5I, W91A
B3: 1IAR FA82A (protein, UniProt P05112 25-153, looked up, variant F82A)
Interleukin-4: B1 Interleukin-4 with A5I, F82A
B4: 1IAR IA11A (protein, UniProt P05112 25-153, looked up, variant I11A)
Interleukin-4: B1 Interleukin-4 with A5I, I11A
B5: 1A4Y EA287A (protein, UniProt P13489 2-461, looked up, variant E287A)
Ribonuclease inhibitor: SLDIQSLDIQCEELSDARWAELLPLLQQCQVVRLDDCGLTEARCKDISSALRVNPALAELNLRSNELGDVGVHCVLQGLQTPSCKIQKLSLQNCCLTGAGCGVLSSTLRTLPTLQELHLSDNLLGDAGLQLLCEGLLDPQCRLEKLQLEYCSLSAASCEPLASVLRAKPDFKELTVSNNDINEAGVRVLCQGLKDSPCQLEALKLESCGVTSDNCRDLCGIVASKASLRELALGSNKLGDVGMAELCPGLLHPSSRLRTLWIWECGITAKGCGDLCRVLRAKESLKALSLAGNELGDEGARLLCETLLEPGCQLESLWVKSCSFTAACCSHFSSVLAQNRFLLELQISNNRLEDAGVRELCQGLGQPGSVLRVLWLADCDVSDSSCSSLAATLLANHSLRELDLSNNCLGDAGILQLVESVRQPGCLLEQLVLYDIYWSEEMEDRLQALEKDKPSLRVIS
B6: 1JRH YI49A (protein, UniProt P15260 18-245, looked up, variant Y49A)
extracellular domain: EMGTADLGPSSVPTPTNVTIESYNMNPIVYWEYQIMPQVPVFTVEVKNAGVKNSEWIDACINISHHYCNISDHVGDPSNSLWVRVKARVGQKESAYAKSEEFAVCRDGKIGPPKLDIRKEEKQIMIDIFHPSVFVNGDEQEVDYDPETTCYIRVYNVYVRMNGSEIQYKILTQKEDDCDEIQCQLAIPVSSLNSQYCVSAEGVLHVWGVTTEKSKEVCITIFNSSIKG
modifications: extracellular domain
B7: 1JRH WI82A (protein, UniProt P15260 18-245, looked up, variant W82A)
extracellular domain: B6 extracellular domain with A49Y, W82A
modifications: extracellular domain
B8: 1JRH VI51A (protein, UniProt P15260 18-245, looked up, variant V51A)
extracellular domain: B6 extracellular domain with A49Y, V51A
modifications: extracellular domain
B9: 1EMV LA33A (protein, UniProt P13479 1-86, looked up, variant L33A)
Colicin-E9 immunity protein: MELKHSISDYTEAEFLQLVTTICNADTSSEEEAVKLVTHFEEMTEHPSGSDLIYYPKEGDDDSPSGIVNTVKQWRAANGKSGFKQG
B10: 1EMV VA34A (protein, UniProt P13479 1-86, looked up, variant V34A)
Colicin-E9 immunity protein: B9 Colicin-E9 immunity protein with A33L, V34A
B11: 1EMV YA54A (protein, UniProt P13479 1-86, looked up, variant Y54A)
Colicin-E9 immunity protein: B9 Colicin-E9 immunity protein with A33L, Y54A
B12: 1EMV YA55A (protein, UniProt P13479 1-86, looked up, variant Y55A)
Colicin-E9 immunity protein: B9 Colicin-E9 immunity protein with A33L, Y55A
B13: 1EMV IA53A (protein, UniProt P13479 1-86, looked up, variant I53A)
Colicin-E9 immunity protein: B9 Colicin-E9 immunity protein with A33L, I53A
B14: 1EMV VA68A (protein, UniProt P13479 1-86, looked up, variant V68A)
Colicin-E9 immunity protein: B9 Colicin-E9 immunity protein with A33L, V68A
B15: 1DFJ WI257A (protein, UniProt P10775 1-456, looked up, variant W257A)
Ribonuclease inhibitor: MNLDIHCEQLSDARWTELLPLLQQYEVVRLDDCGLTEEHCKDIGSALRANPSLTELCLRTNELGDAGVHLVLQGLQSPTCKIQKLSLQNCSLTEAGCGVLPSTLRSLPTLRELHLSDNPLGDAGLRLLCEGLLDPQCHLEKLQLEYCRLTAASCEPLASVLRATRALKELTVSNNDIGEAGARVLGQGLADSACQLETLRLENCGLTPANCKDLCGIVASQASLRELDLGSNGLGDAGIAELCPGLLSPASRLKTLALWECDITASGCRDLCRVLQAKETLKELSLAGNKLGDEGARLLCESLLQPGCQLESLWVKSCSLTAACCQHVSLMLTQNKHLLELQLSSNKLGDSGIQELCQALSQPGTTLRVLCLGDCEVTNSGCSSLASLLLANRSLRELDLSNNCVGDPGVLQLLGSLEQPGCALEQLVLYDTYWTEEVEDRLQALEGSKPGLRVIS
B16: 1DFJ II455A (protein, UniProt P10775 1-456, looked up, variant I455A)
Ribonuclease inhibitor: B15 Ribonuclease inhibitor with A257W, I455A
B17: 1DFJ YI433A (protein, UniProt P10775 1-456, looked up, variant Y433A)
Ribonuclease inhibitor: B15 Ribonuclease inhibitor with A257W, Y433A
B18: 1DFJ YI430A (protein, UniProt P10775 1-456, looked up, variant Y430A)
Ribonuclease inhibitor: B15 Ribonuclease inhibitor with A257W, Y430A
B19: 1DAN GT43A (protein, UniProt P13726 33-251, looked up, variant G43A)
extracellular domain: SGTTNTVAAYNLTWKSTNFKTILEWEPKPVNQVYTVQISTKSADWKSKCFYTTDTECDLTDEIVKDVKQTYLARVFSYPAGNVESTGSAGEPLYENSPEFTPYLETNLGQPTIQSFEQVGTKVNVTVEDERTLVRRNNTFLSLRDVFGKDLIYTLYYWKSSSSGKKTAKTNTNEFLIDVDKGENYCFSVQAVIPSRTVNRKSTDSPVECMGQEKGEFRE
modifications: extracellular domain
B20: 1DAN PU92A (protein, UniProt P13726 33-251, looked up, variant P92A)
extracellular domain: B19 extracellular domain with A43G, P92A
modifications: extracellular domain
B21: 1JRH GI50A (protein, UniProt P15260 18-245, looked up, variant G50A)
extracellular domain: B6 extracellular domain with A49Y, G50A
modifications: extracellular domain
B22: 1EMV PA56A (protein, UniProt P13479 1-86, looked up, variant P56A)
Colicin-E9 immunity protein: B9 Colicin-E9 immunity protein with A33L, P56A
B23: 1EMV GA49A (protein, UniProt P13479 1-86, looked up, variant G49A)
Colicin-E9 immunity protein: B9 Colicin-E9 immunity protein with A33L, G49A

System: PPIs of the SKEMPI data set (by PDBID)
Test: SKEMPI experimental ΔΔG, single mutations to alanine
Type: binding
Conditions: class by ΔΔG threshold 4.184 kJ/mol; ref SKEMPI

| Molecule | sk_class (class of SKEMPI experimental ΔΔG) | sk_class (class of the SKEMPI experimental ΔΔG) |
| --- | --- | --- |
| B1 | Positive (positive (a hot residue) ΔΔG ≥ 4.184 kJ/mol) | – |
| B2 | Neutral (neutral (little effect) 4.184 kJ/mol < ΔΔG > −4.184 kJ/mol) | – |
| B3 | Neutral (neutral (little effect) 4.184 kJ/mol < ΔΔG > −4.184 kJ/mol) | – |
| B4 | Neutral (neutral (little effect) 4.184 kJ/mol < ΔΔG > −4.184 kJ/mol) | – |
| B5 | – | Neutral (neutral (little effect) 4.184 kJ/mol < ΔΔG > −4.184 kJ/mol) |
| B6 | Positive (positive (a hot residue) ΔΔG ≥ 4.184 kJ/mol) | – |
| B7 | Positive (positive (a hot residue) ΔΔG ≥ 4.184 kJ/mol) | – |
| B8 | Positive (positive (a hot residue) ΔΔG ≥ 4.184 kJ/mol) | – |
| B9 | Positive (positive (a hot residue) ΔΔG ≥ 4.184 kJ/mol) | – |
| B10 | Positive (positive (a hot residue) ΔΔG ≥ 4.184 kJ/mol) | – |
| B11 | Positive (positive (a hot residue) ΔΔG ≥ 4.184 kJ/mol) | – |
| B12 | Positive (positive (a hot residue) ΔΔG ≥ 4.184 kJ/mol) | – |
| B13 | Neutral (neutral (little effect) 4.184 kJ/mol < ΔΔG > −4.184 kJ/mol) | – |
| B14 | Positive (positive (a hot residue) ΔΔG ≥ 4.184 kJ/mol) | – |

Same assay, conditions: class of the SKEMPI experimental ΔΔG

| Molecule | sk_class |
| --- | --- |
| B15 | Positive (positive (a hot residue) ΔΔG ≥ 4.184 kJ/mol) |
| B16 | Neutral (neutral (little effect) 4.184 kJ/mol < ΔΔG > −4.184 kJ/mol) |
| B17 | Positive (positive (a hot residue) ΔΔG ≥ 4.184 kJ/mol) |
| B18 | Positive (positive (a hot residue) ΔΔG ≥ 4.184 kJ/mol) |
| B19 | Neutral (neutral (little effect) 4.184 kJ/mol < ΔΔG > −4.184 kJ/mol) |
| B20 | Neutral (neutral (little effect) 4.184 kJ/mol < ΔΔG > −4.184 kJ/mol) |
| B21 | Positive (positive (a hot residue) ΔΔG ≥ 4.184 kJ/mol) |
| B22 | Positive (positive (a hot residue) ΔΔG ≥ 4.184 kJ/mol) |
| B23 | Positive (positive (a hot residue) ΔΔG ≥ 4.184 kJ/mol) |

System: PPIs of the SKEMPI data set (by PDBID)
Test: not given
Conditions: single mutation to alanine, sheet sortedByGroup, r_group FAMILYVW; ref SKEMPI; cited from earlier work

| Molecule | sk_ddG_kJ (SKEMPI experimental ΔΔG) [kJ] |
| --- | --- |
| B15 | 5.56 |
| B16 | 1.38 |
| B17 | 10.96 |
| B18 | 24.89 |

Same assay, conditions: single mutation to alanine; PPI given by PDBID; sheet sortedByGroup, r_group DERKH; ref SKEMPI; cited from earlier work

| Molecule | sk_ddG_kJ (SKEMPI experimental ΔΔG, mutation to alanine) [kJ] |
| --- | --- |
| B5 | 0.38 |

Same assay, conditions: single mutation to alanine; PPI given by PDBID; sheet sortedByGroup, r_group FAMILYVW; ref SKEMPI; cited from earlier work

| Molecule | sk_ddG_kJ (SKEMPI experimental ΔΔG) [kJ] |
| --- | --- |
| B1 | 4.90 |
| B2 | 3.05 |
| B3 | -0.38 |
| B4 | 0.29 |
| B6 | 15.31 |
| B7 | 18.12 |
| B8 | 6.19 |
| B9 | 14.31 |
| B10 | 10.79 |
| B11 | 20.21 |
| B12 | 19.41 |
| B13 | 3.56 |
| B14 | 7.78 |

Same assay, conditions: single mutation to alanine; complex given by PDBID, mutation by mut_pdb; ref SKEMPI; cited from earlier work

| Molecule | sk_ddG_kJ (SKEMPI experimental ΔΔG) [kJ] |
| --- | --- |
| B19 | 0.29 |
| B20 | -0.79 |
| B21 | 18.33 |
| B22 | 5.19 |
| B23 | 6.23 |
